Consider eleven molecules from US20040091480A1 (Kyowa Kirin, published 2004).

Numbering of substitutions follows the chain as printed.

Test [1] addresses T1, C-terminus-biotin labeled compound 1 (an N-terminus peptide of FGF-8) (human, C-terminus biotin label).
T1 construct: also called FGF-8 peptide
T1 peptide: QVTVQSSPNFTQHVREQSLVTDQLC
In words: BIAcore 2000, biotin FGF-8 peptide on SA chip, antibody in solution, RU compared; dissociation hardly observed. The protocol:
In order to examine the activity of various anti-FGF-8 CDR-grafted antibodies obtained in the item 5 of Example 5 to bind to FGF-8 in more detail, activities of various anti-FGF-8 CDR-grafted antibodies to bind to FGF-8 were measured and compared as follows by using BIAcore 2000 (manufactured by BIACORE). The CHO/DG44-derived anti-FGF-8 chimeric antibody KM3034 obtained in the item 3(1) of Example 3 was used as a positive control.
Hereinbelow, HBS-EP (manufactured by Pharmacia) was used as the buffer solution for dilution of samples and during the measurement. First, a sensor tip SA (manufactured by BIACORE) was set, and 5 μl of a C-terminus-biotin labeled compound 1 (an N-terminus peptide of FGF-8; SEQ ID NO:17) prepared to a solution of 0.05 μg/ml was added thereto at a flow rate of […]. Thereafter, the tip surface was washed by adding 5 μl of 10 mmol/l Glycine-HCl buffer (pH 1.5) continuously twice. Immobilized amount of the FGF-8 peptide was 35 RU.
To the FGF-8 peptide immobilized flow cell, 60 μl of each antibody solution was added at a flow rate of 20 μl/minute, and then the dissociation reaction was monitored for 3 minutes. After the dissociation reaction, the tip surface was regenerated by adding 20 μl of 10 mmol/l Glycine-HCl buffer (pH 1.5) continuously twice. This cycle was carried out for antibody solutions of various concentrations (50 to 1.85 μg/ml), and a sensorgram at each concentration was obtained. The sensorgram of each antibody was made into a sensorgram of specific reaction by subtracting a sensorgram obtained using a chimeric antibody KM871 for GD3 [Cancer Immunol. Immunother., 36, 373 (1993)] as a negative control.
On the technique in general: Surface plasmon resonance follows binding to a sensor surface in real time, without labels.

Test [2] concerns the target T2, BSA-compound 1 (Compound 1, human FGF-8 peptide, conjugated with bovine serum albumin) (human, conjugated to BSA through SMCC).
T2 peptide: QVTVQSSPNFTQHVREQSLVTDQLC
The test is described as follows: ELISA on BSA-compound 1, positive control. Here is the method: The conjugate prepared in the above was dispensed at 50 μl/well into a 96 well plate for ELISA (manufactured by Greiner) at a concentration of 0.5 to 1.0 μg/ml and allowed to stand for adsorption overnight at 4° C. After washing with PBS, 1% BSA-containing PBS (BSA-PBS) was added at 100 μl/well and allowed for blocking of remaining active groups to react at room temperature for 1 hour. After washing each well with 0.05% Tween-containing PBS (Tween-PBS), culture supernatants of transformants or purified antibodies were added at 50 μl/well and allowed to react at room temperature for 1 hour. After the reaction, each well was washed with Tween-PBS and then a peroxidase-labeled goat anti-human IgG (H & L) antibody solution (manufactured by American Qualex) diluted 3,000 to 6,000-folds with BSA-PBS was added as a secondary antibody solution at 50 μl/well and allowed to react at room temperature for 1 hour. […] Thereafter, absorbance at 415 nm (OD415) was measured.
The activity of various anti-FGF-8 CDR-grafted antibodies obtained in the item 4 of Example 4 to bind to FGF-8 was measured by the ELISA described in the item 2(6) of Example 3. […]
In general terms: In an ELISA, binding on a coated surface is turned into a signal by an enzyme label.

The target in test [3] is T3, human FGF-8 partial peptide (Sequence ID NO:1) cross-linked with thyroglobulin (human, cross-linked to thyroglobulin (THY) with glutaraldehyde).
T3 construct: Coated on the plate as a thyroglobulin conjugate; also called THY-FGF-8 peptide antigen; FGF-8 peptide
T3 peptide: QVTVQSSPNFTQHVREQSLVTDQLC
In words: enzyme immunoassay, peptide-thyroglobulin conjugate coated on the plate. Here is the method:
A conjugate obtained by cross-linking the human FGF-8 partial peptide shown in Sequence ID NO:1 with thyroglobulin in the following manner was used as the antigen for the assay. That is, 1 mg of the peptide was dissolved in 0.1 M ammonium acetate buffer and the solution was adjusted to 1 ml by adding 5 mg of THY which has been dissolved in advance in the same buffer. To this, while stirring, was added dropwise 540 μl of 0.02 M glutaraldehyde, followed by 5 hours of stirring at room temperature to effect the reaction. After the reaction, the reaction solution was dialyzed overnight against PBS and used as the antigen. A conjugate obtained in the same manner by cross-linking the peptide shown in Sequence ID NO:2 with THY was used as a reference antigen. […] After washing with Tween-PBS, a peroxidase-labeled rabbit anti-mouse immunoglobulin (manufactured by DAKO) was distributed in 50 μl portions into wells of the plate to carry out 1 hour of reaction at room temperature, the plate was again washed with Tween-PBS, and then color development was effected using an ABTS substrate [2,2-azinobis(3-ethylbenzothiazole-6-sulfonic acid)ammonium] solution and absorbance at OD₄₁₅ was measured (NJ 2001, Japan Intermed).

Test [4] concerns the target T2, BSA-compound 1 (Compound 1, human FGF-8 …). In words: ELISA on BSA-compound 1. The protocol: The conjugate prepared in the above was dispensed at 50 μl/well into a 96 well plate for ELISA (manufactured by Greiner) at a concentration of 0.5 to 1.0 μg/ml and allowed to stand for adsorption overnight at 4° C. After washing with PBS, 1% BSA-containing PBS (BSA-PBS) was added at 100 μl/well and allowed for blocking of remaining active groups to react at room temperature for 1 hour. After washing each well with 0.05% Tween-containing PBS (Tween-PBS), culture supernatants of transformants or purified antibodies were added at 50 μl/well and allowed to react at room temperature for 1 hour. After the reaction, each well was washed with Tween-PBS and then a peroxidase-labeled goat anti-human IgG (H & L) antibody solution (manufactured by American Qualex) diluted 3,000 to 6,000-folds with BSA-PBS was added as a secondary antibody solution at 50 μl/well and allowed to react at room temperature for 1 hour. After the reaction and subsequent washing with Tween-PBS, an ABTS substrate solution [a solution prepared by dissolving 0.55 g of 2,2′-azinobis(3-ethylbenzothiazoline-6-sulfonic acid) ammonium in 1 L of 0.1 M citrate buffer (pH 4.2) and adding 1 μl/ml hydrogen peroxide just before use] was added at 50 μl/well for color development, and the reaction was stopped by adding 5% SDS solution at 50 μl/well. Thereafter, absorbance at 415 nm (OD415) was measured.
The activity of various anti-FGF-8 CDR-grafted antibodies obtained in the item 4 of Example 4 to bind to FGF-8 was measured by the ELISA described in the item 2(6) of Example 3. The YB2/0-derived anti-FGF-8 chimeric antibody KM3334 obtained in the item 3(2) of Example 3 was used as a positive control.

Test [5] has as its target T4, FGF-8 (manufactured by R&D) (UniProt P55075-3 23-215, limits assumed).
T4 sequence (looked up): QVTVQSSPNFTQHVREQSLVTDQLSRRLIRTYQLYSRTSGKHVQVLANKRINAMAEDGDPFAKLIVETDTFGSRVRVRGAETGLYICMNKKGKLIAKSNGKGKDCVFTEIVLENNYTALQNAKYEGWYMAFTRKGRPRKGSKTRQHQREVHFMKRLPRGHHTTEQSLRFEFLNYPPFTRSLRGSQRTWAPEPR
In words: cell-based or functional assay.

The target of test [6] is T1, C-terminus-biotin labeled compound 1 …. The test is described as follows: BIAcore 2000, biotin FGF-8 peptide on SA chip, Example 6, RU compared; dissociation hardly observed.

B1: anti-FGF-8 CDR-grafted antibody HV0LV3-1/CHO (antibody, V domains shown)
VH: QVQLVQSGAEVKKPGASVKVSCKASGYTFTDYYLNWVRQAPGQGLEWMGEIDPGSDSIYYNENLEGRVTITADTSTSTAYMELSSLRSEDTAVYYCARYGYSRYDVRFVYWGQGTLVTVSS
VL: DVVMTQSPLSLPVTPGEPASISCRSSQSLVHSNGRTYLEWYLQKPGQSPQVLIYKVSNRISGVPDRFSGSGSGTDFTLKISRVEAEDVGVYFCFQGSHVPYTFGQGTKVEIK
notes: HV.0 + LV.3-1, human gamma1/kappa constant regions, made in CHO/DG44 cells; also called KM8036; FERM BP-8083
Regarding B1, the binding result in test [1] was “binds”.

B2: anti-FGF-8 chimeric antibody KM3334 (antibody, V domains shown)
VH: QVQLQQSGAEVARPGASVKLSCKASGYTFTDYYLNWVKQRSGQGLEWIGEIDPGSDSIYYNENLEGRATLTADKSSSTAYMQLNSLTSEDSAVYFCARYGYSRYDVRFVYWGQGTLVTVST
VL: B1 VL with V3L, S7T, T14S, P15L, E17D, P18Q, Q50K, V88L, Q105G, V109L
Consider B2, for which, in test [2], the binding result is given as “binds”.

B3: anti-FGF-8 chimeric antibody KM3034 (antibody, V domains shown)
VH: B2 VH
VL: B1 VL with V3L, S7T, T14S, P15L, E17D, P18Q, Q50K, V88L, Q105G, V109L
notes: Human chimeric antibody, human gamma1 CH and kappa CL (vector pKANTEX93), made in CHO/DG44 cells; also called FERM BP-7836
With B3, in test [1], the binding result is recorded as “binds”.

B4: anti-FGF-8 monoclonal antibody KM 1334 (antibody, mouse IgG1, V domains shown)
VH: B2 VH
VL: B1 VL with V3L, S7T, T14S, P15L, E17D, P18Q, Q50K, V88L, Q105G, V109L
notes: Mouse IgG1, kappa L chain, purified from ascites; also called anti-FGF-8 mouse antibody KM1334; antibody of hybridoma FERM BP-5451
Turning to B4, the binding result in test [3] is “binds”.

B5: anti-FGF-8 CDR-grafted antibody HV0LV6 (YB2/0 cell-derived) (antibody, V domains shown)
VH: B1 VH
VL: B1 VL with T14S, P15L, Q50K
notes: also called KM8037; FERM BP-8084
On to B5, for which, in test [4], the binding result is “binds”.

B6: anti-FGF-8 CDR-grafted antibody HV0LV3-3/CHO (antibody, V domains shown)
VH: B1 VH
VL: B1 VL with V2I, T14S, P15L, F92Y
For B6, in test [5], the “FGF-8 neutralization activity, FGF-8-dependent growth of SC-3 cells” value was ~0.5 fold of the activity of KM3034.

B7: anti-FGF-8 CDR-grafted antibody HV0LV4-3/CHO (antibody, V domains shown)
VH: B1 VH
VL: B1 VL with V2I, T14S, P15L
notes: HV.0 + LV.4-3, human gamma1/kappa constant regions, made in CHO/DG44 cells; also called KM8035
Consider B7, for which the “FGF-8 neutralization activity, FGF-8-dependent growth of SC-3 cells” value in test [5] was ~0.5 fold of the activity of KM3034. In addition, the binding result in test [6] was “binds”.

B8: anti-FGF-8 CDR-grafted antibody HV0LV0/CHO (antibody, V domains shown)
VH: B1 VH
VL: B1 VL with V2I, V51L, F92Y
As for B8, the binding result in test [1] is recorded as “binds”.

B9: anti-FGF-8 CDR-grafted antibody HV6LV6 (YB2/0 cell-derived) (antibody, V domains shown)
VH: B1 VH with K12A, K13R, A40R, P41S, M48I, Y95F
VL: B1 VL with T14S, P15L, Q50K
Regarding B9, in test [4], the binding result was “binds”.

B10: anti-FGF-8 CDR-grafted antibody HV0LV6/CHO (antibody, V domains shown)
VH: B1 VH
VL: B1 VL with T14S, P15L, Q50K
notes: also called KM8034
For B10, the binding result in test [1] is recorded as “binds”.

B11: anti-FGF-8 CDR-grafted antibody HV0LV0 (YB2/0 cell-derived) (antibody, V domains shown)
VH: B1 VH
VL: B1 VL with V2I, V51L, F92Y
On to B11, for which the binding result in test [4] is on record as “binds”.
